Paper PMC5727386

Experiments:
[1] = target: Tyrosine phosphatase Sts1 (UniProt Q8BGG7); test: co-immunoprecipitation (anti-Bcr-Abl/Abl IP, Sts1 immunoblot, quantified); settings: BaF3 cells stably transduced with the Bcr-Abl variants; parent: est. 1.0; read off a plot
[2] = target: Bcr-Abl DH domain (residues 487–702) (UniProt P11274); test: NMR titration; GTPase titrated to 50 μM 15N-labeled DH domain; 50 mM HEPES pH 7, 50 mM NaCl, 1 mM DTT, 1 mM imidazole, 2 mM EDTA; [15N,1H]-TROSY; about 10 peaks fitted to a 1:1 binding model, mean Kd
Bcr-Abl DH domain (residues 487–702), sequence (P11274 487-702): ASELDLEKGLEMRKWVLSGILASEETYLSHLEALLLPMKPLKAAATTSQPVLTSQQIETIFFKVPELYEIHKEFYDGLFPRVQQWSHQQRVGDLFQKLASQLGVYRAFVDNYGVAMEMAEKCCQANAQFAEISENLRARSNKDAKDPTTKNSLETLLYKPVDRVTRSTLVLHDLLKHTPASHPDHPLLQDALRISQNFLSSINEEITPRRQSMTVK

Tyrosine phosphatase Sts1, sequence (Q8BGG7 whole entry, the tested form may be a part): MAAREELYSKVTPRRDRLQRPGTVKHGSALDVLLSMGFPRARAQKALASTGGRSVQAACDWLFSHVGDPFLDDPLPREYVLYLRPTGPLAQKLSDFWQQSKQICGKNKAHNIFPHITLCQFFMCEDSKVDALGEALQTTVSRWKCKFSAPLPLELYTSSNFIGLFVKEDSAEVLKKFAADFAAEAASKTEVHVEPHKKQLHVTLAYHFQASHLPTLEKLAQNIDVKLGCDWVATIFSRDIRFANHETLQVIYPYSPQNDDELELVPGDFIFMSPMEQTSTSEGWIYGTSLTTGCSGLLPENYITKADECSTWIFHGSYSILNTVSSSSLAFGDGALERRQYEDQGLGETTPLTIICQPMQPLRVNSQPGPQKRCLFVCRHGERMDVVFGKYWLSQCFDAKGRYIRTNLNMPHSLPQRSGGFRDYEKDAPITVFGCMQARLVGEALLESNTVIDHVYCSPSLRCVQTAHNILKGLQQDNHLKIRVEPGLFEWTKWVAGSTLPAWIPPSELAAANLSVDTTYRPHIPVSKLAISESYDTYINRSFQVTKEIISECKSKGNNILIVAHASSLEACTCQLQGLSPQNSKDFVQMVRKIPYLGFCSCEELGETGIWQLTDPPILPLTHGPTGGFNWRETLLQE
Bcr-Abl p210 (from UniProt P11274) R726A; F1100E, sequence (P11274 whole entry, stated change not applied): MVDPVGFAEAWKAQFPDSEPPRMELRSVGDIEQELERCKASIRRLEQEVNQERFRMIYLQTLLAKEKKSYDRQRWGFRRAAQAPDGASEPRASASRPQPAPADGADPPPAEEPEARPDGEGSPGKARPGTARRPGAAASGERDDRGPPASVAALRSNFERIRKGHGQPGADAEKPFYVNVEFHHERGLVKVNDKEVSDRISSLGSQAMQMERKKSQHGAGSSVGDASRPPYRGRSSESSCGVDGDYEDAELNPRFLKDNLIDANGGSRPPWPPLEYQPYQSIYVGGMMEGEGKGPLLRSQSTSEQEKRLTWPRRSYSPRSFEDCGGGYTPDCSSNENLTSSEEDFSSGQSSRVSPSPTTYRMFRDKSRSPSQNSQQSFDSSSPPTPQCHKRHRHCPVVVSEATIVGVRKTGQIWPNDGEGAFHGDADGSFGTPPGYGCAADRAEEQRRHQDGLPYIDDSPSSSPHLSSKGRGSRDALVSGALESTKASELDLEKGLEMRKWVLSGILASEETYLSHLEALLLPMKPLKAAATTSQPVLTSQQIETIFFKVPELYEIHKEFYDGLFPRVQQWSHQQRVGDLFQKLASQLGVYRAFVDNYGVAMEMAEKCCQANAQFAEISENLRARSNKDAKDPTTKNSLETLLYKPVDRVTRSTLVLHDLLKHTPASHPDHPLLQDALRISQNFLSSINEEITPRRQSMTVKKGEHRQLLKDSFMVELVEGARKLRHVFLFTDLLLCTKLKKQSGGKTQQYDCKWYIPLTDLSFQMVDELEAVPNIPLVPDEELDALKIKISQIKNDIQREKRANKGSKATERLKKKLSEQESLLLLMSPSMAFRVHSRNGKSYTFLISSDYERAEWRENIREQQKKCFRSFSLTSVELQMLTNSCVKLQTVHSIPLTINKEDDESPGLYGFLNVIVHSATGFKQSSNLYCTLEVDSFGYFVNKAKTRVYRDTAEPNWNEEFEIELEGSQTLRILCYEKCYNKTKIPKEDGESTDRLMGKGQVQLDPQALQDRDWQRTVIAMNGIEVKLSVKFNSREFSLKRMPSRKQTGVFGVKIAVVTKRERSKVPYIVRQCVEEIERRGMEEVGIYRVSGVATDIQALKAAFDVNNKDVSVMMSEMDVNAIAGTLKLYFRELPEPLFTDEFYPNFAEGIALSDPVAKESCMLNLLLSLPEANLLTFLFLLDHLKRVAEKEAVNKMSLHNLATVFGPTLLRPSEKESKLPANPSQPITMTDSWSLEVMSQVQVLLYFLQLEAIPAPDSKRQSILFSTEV
Bcr-Abl p210 (from UniProt P11274) F1100E, sequence (P11274 whole entry, stated change not applied): as above
Bcr-Abl p210 (from UniProt P11274) R723A; K724A; F1100E, sequence (P11274 whole entry, stated change not applied): as above

Row | ratio to parent [1] | Kd [2] | Substance
1 | 0.5 |  | Bcr-Abl p210 (from UniProt P11274) R726A; F1100E
2 |  | 600 µM | RhoA (from UniProt P61586 1-193) (enzyme)
3 | 0.55 |  | Bcr-Abl p210 (from UniProt P11274) F1100E
4 |  | 1900 µM | Cdc42 (from UniProt P60953 1-191) (enzyme)
5 | 0.24 |  | Bcr-Abl p210 (from UniProt P11274) R723A; K724A; F1100E
